Source: the supplement of paper PMC12042874
± gives the uncertainty stated by the source.

test: amyloid nucleation score (Sup35N fusion, yeast selection) (log enrichment); library NNK3; higher = more nucleation; inactive = no reads after selection
Summary of the method: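 After 24 hours of induction with 100 μM copper sulfate, psi-negative yeast expressing peptides of 20 random codons fused to Sup35N were grown for 7 days at 30°C on medium lacking adenine and uracil. Input and output plasmid inserts were sequenced with Illumina, and sequences with under 100 input reads were discarded. Scores for nucleation are the DiMSum log enrichment of output over input reads, centred on the mode score of non-aggregating sequences.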

**Q.** With HNNTIVASWRHDNRACA as the substance, how does the amyloid nucleation score read?
**A.** The amyloid nucleation score was “inactive”.

**Q.** Which amyloid nucleation score does the source give for FELTVLSSMVAIFL here?
**A.** Its amyloid nucleation score is 1.61 ± 0.089.

**Q.** With SILLDMSDQFPALGFSLFII as the substance, how does the amyloid nucleation score read?
**A.** Its amyloid nucleation score is “inactive”.

**Q.** Which amyloid nucleation score does the source give for QYANVGSCVCDRIIRCFYGW here?
**A.** Its amyloid nucleation score is “inactive”.

**Q.** Which amyloid nucleation score does the source give for FRYVREAGIGIVG here?
**A.** The amyloid nucleation score was “inactive”.

**Q.** Which amyloid nucleation score does the source give for LIRGK here?
**A.** The amyloid nucleation score was “inactive”.

**Q.** Which amyloid nucleation score does the source give for RTNDHVNW here?
**A.** Its amyloid nucleation score is “inactive”.

**Q.** For SCLRHPSTSSQNKSCLPDIP, which amyloid nucleation score is on record?
**A.** Its amyloid nucleation score is “inactive”.

**Q.** Which amyloid nucleation score does the source give for LFIFNGCAM here?
**A.** The amyloid nucleation score was 2.31 ± 0.057.

**Q.** With SLNER as the substance, how does the amyloid nucleation score read?
**A.** Its amyloid nucleation score is “inactive”.

**Q.** For TCNYMSGGFALRFTISYGGA, which amyloid nucleation score is on record?
**A.** Its amyloid nucleation score is “inactive”.

**Q.** With YLDVPTCDLSMPCYDINNNL as the substance, how does the amyloid nucleation score read?
**A.** The amyloid nucleation score was “inactive”.

**Q.** Which amyloid nucleation score does the source give for YFFKTQISSDGTLSTYECME here?
**A.** Its amyloid nucleation score is “inactive”.

**Q.** Which amyloid nucleation score does the source give for LYRSMH here?
**A.** Its amyloid nucleation score is “inactive”.

**Q.** With FTHAIPVYDEVPNHDICDGS as the substance, how does the amyloid nucleation score read?
**A.** The amyloid nucleation score was “inactive”.

**Q.** For THRFGMVR, which amyloid nucleation score is on record?
**A.** Its amyloid nucleation score is “inactive”.

**Q.** With TLLTMTDFAIKFSHKQPGYV as the substance, how does the amyloid nucleation score read?
**A.** The amyloid nucleation score was “inactive”.

**Q.** With SSTMLTNIWHHPNHGVVWDR as the substance, how does the amyloid nucleation score read?
**A.** The amyloid nucleation score was “inactive”.

**Q.** For SMRLEFGLSMCVWVVDPSN, which amyloid nucleation score is on record?
**A.** The amyloid nucleation score was 0.706 ± 0.15.

**Q.** Which amyloid nucleation score does the source give for YSWSMLL here?
**A.** Its amyloid nucleation score is 0.077 ± 0.54.

**Q.** Which amyloid nucleation score does the source give for HWSRFQYGLVFRNFIVQNLD here?
**A.** The amyloid nucleation score was “inactive”.

**Q.** Which amyloid nucleation score does the source give for SVDYQGYNGKKYLFTISLRC here?
**A.** The amyloid nucleation score was “inactive”.

**Q.** Which amyloid nucleation score does the source give for VTGLCSDTHRVSYEFRLPRK here?
**A.** Its amyloid nucleation score is “inactive”.

**Q.** Which amyloid nucleation score does the source give for KYWSLGNGCTTKRWSGGFVS here?
**A.** The amyloid nucleation score was “inactive”.

**Q.** With YGVESAYKCRNVYFLYWCML as the substance, how does the amyloid nucleation score read?
**A.** Its amyloid nucleation score is 0.511 ± 0.13.

**Q.** Which amyloid nucleation score does the source give for WVCIW here?
**A.** Its amyloid nucleation score is 0.178 ± 0.72.

**Q.** With SVMMVMEEFFQWGLKVNMRT as the substance, how does the amyloid nucleation score read?
**A.** Its amyloid nucleation score is -0.078 ± 0.54.

**Q.** Which amyloid nucleation score does the source give for YVITQQSSFSVTLYSSINFC here?
**A.** Its amyloid nucleation score is 0.625 ± 0.33.

**Q.** For DISSKY, which amyloid nucleation score is on record?
**A.** The amyloid nucleation score was “inactive”.

**Q.** For QMSFQSSYQVRLFLVPPFQW, which amyloid nucleation score is on record?
**A.** The amyloid nucleation score was 0.412 ± 0.23.

**Q.** With HKRTTNIPFRFSNLC as the substance, how does the amyloid nucleation score read?
**A.** Its amyloid nucleation score is “inactive”.

**Q.** Which amyloid nucleation score does the source give for FAFAEERADLWSN here?
**A.** The amyloid nucleation score was “inactive”.

**Q.** With LKLYQAAL as the substance, how does the amyloid nucleation score read?
**A.** The amyloid nucleation score was “inactive”.

**Q.** Which amyloid nucleation score does the source give for VFDCYHRTGVMETVCWNVFG here?
**A.** Its amyloid nucleation score is “inactive”.

**Q.** For GLFCNVFMNKCSS, which amyloid nucleation score is on record?
**A.** The amyloid nucleation score was “inactive”.

**Q.** Which amyloid nucleation score does the source give for GVNDRGDENGVVGA here?
**A.** Its amyloid nucleation score is “inactive”.

**Q.** Which amyloid nucleation score does the source give for FSDCQLESGCCHRSRDLIGL here?
**A.** The amyloid nucleation score was “inactive”.

**Q.** Which amyloid nucleation score does the source give for YCSLMMMVYRDFFTLVNASV here?
**A.** The amyloid nucleation score was “inactive”.

**Q.** With RIDTRNDRSNYR as the substance, how does the amyloid nucleation score read?
**A.** The amyloid nucleation score was “inactive”.

**Q.** With PLFNRYVSF as the substance, how does the amyloid nucleation score read?
**A.** Its amyloid nucleation score is “inactive”.

**Q.** Which amyloid nucleation score does the source give for CPNMPSSTGTKPSNVMVSFS here?
**A.** Its amyloid nucleation score is “inactive”.

**Q.** Which amyloid nucleation score does the source give for TNGKPFYFPLAVMMSG here?
**A.** Its amyloid nucleation score is “inactive”.

**Q.** Which amyloid nucleation score does the source give for TVLYWRLRQMMRFRLFSSNW here?
**A.** The amyloid nucleation score was “inactive”.

**Q.** Which amyloid nucleation score does the source give for HANCANRLNYLYVLYRAS here?
**A.** The amyloid nucleation score was “inactive”.

**Q.** With RYDMRVNVVFTCPWRDSNND as the substance, how does the amyloid nucleation score read?
**A.** The amyloid nucleation score was 0.894 ± 0.28.

**Q.** For FSIFSVFEPWMISKFCP, which amyloid nucleation score is on record?
**A.** Its amyloid nucleation score is “inactive”.

**Q.** Which amyloid nucleation score does the source give for WTFNLFFNFRTFRLCCRKLV here?
**A.** Its amyloid nucleation score is 0.938 ± 0.096.

**Q.** For QTHMTFYVCMFRGTCNGNMC, which amyloid nucleation score is on record?
**A.** The amyloid nucleation score was 2.1 ± 0.051.

**Q.** For NHCNTCSWFLQTS, which amyloid nucleation score is on record?
**A.** The amyloid nucleation score was 1.45 ± 0.14.

**Q.** For MILTKSNSEVFEVGNKKLRV, which amyloid nucleation score is on record?
**A.** The amyloid nucleation score was “inactive”.

**Q.** For FDLVNWYFQRNIVLRQSCCY, which amyloid nucleation score is on record?
**A.** Its amyloid nucleation score is “inactive”.

**Q.** With AESICALTML as the substance, how does the amyloid nucleation score read?
**A.** The amyloid nucleation score was “inactive”.

**Q.** Which amyloid nucleation score does the source give for KDYLWNILRIT here?
**A.** The amyloid nucleation score was “inactive”.

**Q.** For DVTRTCRYGEVYDWTIKIRP, which amyloid nucleation score is on record?
**A.** Its amyloid nucleation score is “inactive”.

**Q.** Which amyloid nucleation score does the source give for VLRLFDTNPHDSREVAYFYF here?
**A.** The amyloid nucleation score was “inactive”.

**Q.** Which amyloid nucleation score does the source give for VSNECVPWAPYGIGGF here?
**A.** Its amyloid nucleation score is “inactive”.

**Q.** For YSSSC, which amyloid nucleation score is on record?
**A.** The amyloid nucleation score was “inactive”.

**Q.** Which amyloid nucleation score does the source give for GSVSYISLSDNWVSGRKK here?
**A.** Its amyloid nucleation score is “inactive”.

**Q.** With TLDVR as the substance, how does the amyloid nucleation score read?
**A.** The amyloid nucleation score was “inactive”.

**Q.** Which amyloid nucleation score does the source give for ARIFH here?
**A.** The amyloid nucleation score was “inactive”.

**Q.** With LYLVGIMYASTQYTWRQLIN as the substance, how does the amyloid nucleation score read?
**A.** The amyloid nucleation score was “inactive”.

**Q.** For WGLTMLRESRVCCKSYNKQG, which amyloid nucleation score is on record?
**A.** The amyloid nucleation score was “inactive”.

**Q.** For SLYTARVFGVNYHFVTSKFF, which amyloid nucleation score is on record?
**A.** Its amyloid nucleation score is “inactive”.

**Q.** For QEVAMRAISLSLPARWSVPC, which amyloid nucleation score is on record?
**A.** Its amyloid nucleation score is “inactive”.

**Q.** For VSKLWSYLVLYPHWV, which amyloid nucleation score is on record?
**A.** Its amyloid nucleation score is “inactive”.

**Q.** Which amyloid nucleation score does the source give for SGNDNFYVDCNWLNIIVNET here?
**A.** The amyloid nucleation score was 2.79 ± 0.078.

**Q.** Which amyloid nucleation score does the source give for MYYAN here?
**A.** Its amyloid nucleation score is “inactive”.

**Q.** For FYYRESRQLRLWVYIGSIVY, which amyloid nucleation score is on record?
**A.** The amyloid nucleation score was “inactive”.

**Q.** Which amyloid nucleation score does the source give for PWSLWRTVKSPRKGGEQPRS here?
**A.** Its amyloid nucleation score is -0.317 ± 1.1.

**Q.** Which amyloid nucleation score does the source give for VNIGTIWETDKCMEIFCAAA here?
**A.** The amyloid nucleation score was “inactive”.

**Q.** For NARVDVRRVVLHAKMPSFTI, which amyloid nucleation score is on record?
**A.** Its amyloid nucleation score is “inactive”.

**Q.** With MGFVHINGQCTQLLCCSRLK as the substance, how does the amyloid nucleation score read?
**A.** Its amyloid nucleation score is 1.94 ± 0.072.

**Q.** For FNTIAIDTSLVGSNYAGATK, which amyloid nucleation score is on record?
**A.** The amyloid nucleation score was “inactive”.

**Q.** Which amyloid nucleation score does the source give for KWLVPTQG here?
**A.** The amyloid nucleation score was “inactive”.

**Q.** With SSMWF as the substance, how does the amyloid nucleation score read?
**A.** The amyloid nucleation score was “inactive”.

**Q.** With VGETWNSVACVLTQLWLTCE as the substance, how does the amyloid nucleation score read?
**A.** The amyloid nucleation score was -0.014 ± 0.26.

**Q.** For VWQYNDGSYCVVMYVSSSDY, which amyloid nucleation score is on record?
**A.** The amyloid nucleation score was 1.06 ± 0.19.

**Q.** For WDSMMYNMVKDDSGLWNHVE, which amyloid nucleation score is on record?
**A.** The amyloid nucleation score was “inactive”.

**Q.** With AMIINLRMWYNLRIIIMGTR as the substance, how does the amyloid nucleation score read?
**A.** The amyloid nucleation score was “inactive”.

**Q.** For HHGWVVYNWVDKVINSHIVG, which amyloid nucleation score is on record?
**A.** Its amyloid nucleation score is 0.478 ± 0.28.
